Data: paper PMC9633295 (Cancer Science, 2022)

Assays:
[1] = target: T1, recombinant human CD155-Fc fusion protein, WT (human, UniProt P15151 21-343); assay: BLI
T1 sequence (looked up): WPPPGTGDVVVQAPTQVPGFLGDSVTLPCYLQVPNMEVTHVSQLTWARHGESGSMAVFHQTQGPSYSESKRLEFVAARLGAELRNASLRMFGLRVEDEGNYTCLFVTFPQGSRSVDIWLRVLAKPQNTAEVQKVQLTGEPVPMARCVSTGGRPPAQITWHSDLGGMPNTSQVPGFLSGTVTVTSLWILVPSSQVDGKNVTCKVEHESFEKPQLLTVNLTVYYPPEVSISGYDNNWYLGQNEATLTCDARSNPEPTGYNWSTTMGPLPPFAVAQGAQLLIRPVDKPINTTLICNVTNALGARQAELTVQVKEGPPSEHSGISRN

[2] = target: T2, recombinant human CD155-Fc fusion protein, mutant (Ala67Thr) (human, UniProt P15151 21-343, Ala67Thr); assay: BLI
T2 sequence (looked up): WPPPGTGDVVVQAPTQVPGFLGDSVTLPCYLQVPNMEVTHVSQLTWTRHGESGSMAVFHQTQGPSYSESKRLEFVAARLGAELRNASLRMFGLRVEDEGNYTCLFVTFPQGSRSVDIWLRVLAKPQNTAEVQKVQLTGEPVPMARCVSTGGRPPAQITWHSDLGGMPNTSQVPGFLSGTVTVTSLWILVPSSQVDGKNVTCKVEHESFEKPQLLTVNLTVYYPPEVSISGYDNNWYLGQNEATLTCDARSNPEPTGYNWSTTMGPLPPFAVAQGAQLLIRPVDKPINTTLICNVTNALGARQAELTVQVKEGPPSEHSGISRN

B1: His-tagged recombinant human DNAM-1 (receptor, UniProt Q15762 19-254, looked up)
chain: EEVLWHTSVPFAENMSLECVYPSMGILTQVEWFKIGTQQDSIAIFSPTHGMVIRKPYAERVYFLNSTMASNNMTLFFRNASEDDVGYYSCSLYTYPQGTWQKVIQVVQSDSFEAAVPSNSHIVSEPGKNVTLTCQPQMTWPVQAVRWEKIQPRQIDLLTYCNLVHGRNFTSKFPRQIVSNCSHGRWSVIVIPDVTVSDSGLYRCYLQASAGENETFVMRLTVAEGKTDNQYTLFVA
[1]
  binding result: binds
[2]
  binding result: binds
